We go through 138 variants from the Human Domainome abundance scans (Beltran et al. 2025).

± gives the uncertainty stated by the source.

Sequences and labels used below:
B1: FERM and PDZ domain-containing protein 4, residues 75 to 154; numbered along this chain, Q14CM0 (parent)
chain: APRKVEMRRDPVLGFGFVAGSEKPVVVRSVTPGGPSEGKLIPGDQIVMINDEPVSAAPRERVIDLVRSCKESILLTVIQP

The variants in the data set derive from B1. The data set can be described thus: abundance fitness (aPCA) (normalised: wild type 0, dead -1); higher = more abundant; growth selection in yeast, the domain comes from the species named. The note with it: Homo sapiens.
On to R3Q, for which the abundance fitness is -0.243 ± 0.032.
As for V12S, the abundance fitness is -0.006 ± 0.031.
As for V12R, the abundance fitness was -0.023 ± 0.027.
With V12G, the abundance fitness was -0.048 ± 0.025.
Regarding V12C, the abundance fitness was -0.056 ± 0.04.
For the variant V12H, the abundance fitness turned out to be 0.043 ± 0.051.
On to V12E, for which the abundance fitness was -0.068 ± 0.036.
As for V12W, the abundance fitness is -0.14 ± 0.038.
On to V12Y, for which the abundance fitness is -0.065 ± 0.049.
In the case of V12Q, the abundance fitness turned out to be 0 ± 0.037.
In the case of V12D, the abundance fitness came to 0.004 ± 0.046.
Under V12F stands -0.089 ± 0.054; under V12M, 0.007 ± 0.041.
To V12P belongs -0.545 ± 0.046.
Under V12K stands 0.004 ± 0.04; under V12N, 0.025 ± 0.056.
On to V12T, for which the abundance fitness was determined as 0.049 ± 0.039.
In the case of V12L, the abundance fitness is -0.001 ± 0.029.
As for V12I, the abundance fitness was -0.055 ± 0.04.
In the case of P11V, the abundance fitness is -0.247 ± 0.026.
As for P11D, the abundance fitness was -0.063 ± 0.048.
Consider P11A, for which the abundance fitness is -0.137 ± 0.028.
For P11N, the abundance fitness is -0.157 ± 0.043.
In the case of P11Q, the abundance fitness is -0.131 ± 0.03.
P11H: the abundance fitness was -0.208 ± 0.054.
With P11L, the abundance fitness was -0.143 ± 0.023.
Turning to P11W, the abundance fitness is -0.405 ± 0.029.
Turning to P11G, the abundance fitness was -0.128 ± 0.021.
For the variant P11E, the abundance fitness was -0.117 ± 0.031.
P11R: the abundance fitness is -0.123 ± 0.021.
Take P11I: the abundance fitness is -0.162 ± 0.042.
To P11C belongs -0.243 ± 0.033; to P11F, -0.329 ± 0.046; to P11Y, -0.391 ± 0.085.
Under P11T stands -0.111 ± 0.029; under P11K, -0.09 ± 0.031; under P11M, -0.148 ± 0.031.
Consider V5G, for which the abundance fitness is -0.997 ± 0.036.
Under V5K stands -0.749 ± 0.059.
To V5Q belongs -0.522 ± 0.034; to V5Y, -0.107 ± 0.04; to V5L, -0.154 ± 0.023.
To V5T belongs -0.325 ± 0.032; to V5E, -0.192 ± 0.029.
On to V5M, for which the abundance fitness was -0.192 ± 0.031.
Turning to V5A, the abundance fitness was -0.219 ± 0.026.
To V5D belongs -0.976 ± 0.096; to V5S, -0.623 ± 0.031; to V5C, -0.556 ± 0.038.
Regarding V5H, the abundance fitness is -0.349 ± 0.041.
For V5R, the abundance fitness is -0.679 ± 0.026.
Turning to V5F, the abundance fitness is -0.085 ± 0.036.
On to V5N, for which the abundance fitness was -0.778 ± 0.069.
Regarding G14Y, the abundance fitness is -0.761 ± 0.068.
Regarding G14I, the abundance fitness was -0.719 ± 0.062.
Under G14V stands -0.779 ± 0.039.
With G14F, the abundance fitness was -0.822 ± 0.077.
Under G14H stands -0.303 ± 0.043.
For G14D, the abundance fitness was -0.025 ± 0.036.
For the variant G14P, the abundance fitness was -0.963 ± 0.073.
G14W: the abundance fitness was -1 ± 0.071.
For G14S, the abundance fitness was -0.273 ± 0.028.
Under G14R stands -0.496 ± 0.028; under G14T, -0.718 ± 0.044.
Turning to G14L, the abundance fitness was -0.677 ± 0.035.
For G14M, the abundance fitness was -0.404 ± 0.04.
On to G14K, for which the abundance fitness is -0.247 ± 0.04.
Consider G14N, for which the abundance fitness is -0.131 ± 0.044.
To G14C belongs -0.502 ± 0.042.
Consider R9H, for which the abundance fitness was -0.227 ± 0.06.
As to R9P, the abundance fitness was -0.086 ± 0.029.
Consider R9F, for which the abundance fitness was -0.031 ± 0.037.
For the variant R9Y, the abundance fitness was -0.089 ± 0.064.
With R9N, the abundance fitness is -0.157 ± 0.063.
Regarding R9A, the abundance fitness was -0.066 ± 0.024.
As to R9I, the abundance fitness was -0.142 ± 0.038.
Take R9V: the abundance fitness was -0.217 ± 0.024.
With R9K, the abundance fitness is -0.031 ± 0.031.
For the variant R9S, the abundance fitness was -0.152 ± 0.025.
Turning to R9D, the abundance fitness is -0.792 ± 0.09.
Regarding R9E, the abundance fitness is -0.382 ± 0.03.
For R9T, the abundance fitness is -0.277 ± 0.03.
On to R9C, for which the abundance fitness was -0.19 ± 0.033.
With R9W, the abundance fitness was -0.089 ± 0.028.
As to R9G, the abundance fitness is -0.402 ± 0.024.
For R9Q, the abundance fitness is -0.3 ± 0.035.
Take R9M: the abundance fitness was -0.149 ± 0.032.
With E6F, the abundance fitness is 0.043 ± 0.037.
Under E6N stands -0.014 ± 0.043; under E6L, -0.018 ± 0.022; under E6V, -0.091 ± 0.022.
As to E6K, the abundance fitness was 0.002 ± 0.029.
In the case of E6R, the abundance fitness was -0.029 ± 0.02.
As for E6W, the abundance fitness is -0.047 ± 0.025.
As to E6I, the abundance fitness is -0.006 ± 0.033.
In the case of E6T, the abundance fitness is -0.009 ± 0.027.
Turning to E6S, the abundance fitness is -0.016 ± 0.023.
Turning to E6G, the abundance fitness is -0.144 ± 0.02.
Under E6H stands 0.039 ± 0.039; under E6A, -0.086 ± 0.022.
With E6Y, the abundance fitness turned out to be 0.007 ± 0.037.
For the variant E6Q, the abundance fitness was -0.03 ± 0.029.
For E6M, the abundance fitness is -0.061 ± 0.028.
As to E6P, the abundance fitness was -0.184 ± 0.028.
E6C: the abundance fitness was -0.065 ± 0.03.
As to P2I, the abundance fitness was 0.019 ± 0.048.
Under P2A stands -0.074 ± 0.026.
On to P2D, for which the abundance fitness was -0.083 ± 0.042.
To P2L belongs -0.015 ± 0.026.
With P2H, the abundance fitness stood at 0.023 ± 0.032.
With P2M, the abundance fitness turned out to be 0.023 ± 0.041.
Regarding P2W, the abundance fitness is -0.119 ± 0.033.
Take P2K: the abundance fitness is -0.051 ± 0.042.
P2E: the abundance fitness is 0.044 ± 0.032.
P2C: the abundance fitness is -0.066 ± 0.044.
To P2Y belongs -0.004 ± 0.05; to P2G, 0 ± 0.027; to P2R, -0.01 ± 0.023.
As to P2T, the abundance fitness was 0.007 ± 0.029.
For P2F, the abundance fitness was -0.012 ± 0.052.
P2V: the abundance fitness was -0.049 ± 0.027.
Consider P2N, for which the abundance fitness is -0.003 ± 0.048.
Under G16H stands -1.01 ± 0.14; under G16K, -0.911 ± 0.066; under G16A, -0.499 ± 0.027.
To G16Y belongs -1.3 ± 0.27; to G16P, -0.977 ± 0.063.
In the case of G16N, the abundance fitness is -0.677 ± 0.099.
On to G16R, for which the abundance fitness was -1.04 ± 0.042.
With G16S, the abundance fitness is -0.813 ± 0.039.
On to G16V, for which the abundance fitness was -1.08 ± 0.049.
For G16Q, the abundance fitness is -0.889 ± 0.066.
G16D: the abundance fitness is -0.783 ± 0.057.
Consider G16C, for which the abundance fitness was -0.956 ± 0.074.
Turning to G16F, the abundance fitness is -1.03 ± 0.13.
Under G16I stands -1.32 ± 0.2; under G16L, -1.15 ± 0.066.
For the variant G16T, the abundance fitness is -0.946 ± 0.061.
